{
  "source": "patent US20210115143A1",
  "key": {"[1]": {"biological_target": "CD16a receptor (Fc gamma receptor) (UniProt P08637)", "sequence (P08637 17-208 limits assumed)": "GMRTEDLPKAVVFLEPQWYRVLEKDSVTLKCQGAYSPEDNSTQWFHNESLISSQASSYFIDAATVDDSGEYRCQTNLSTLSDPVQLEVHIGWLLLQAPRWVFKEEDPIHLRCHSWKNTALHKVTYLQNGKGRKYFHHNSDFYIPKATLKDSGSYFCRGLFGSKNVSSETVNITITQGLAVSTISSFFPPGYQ", "test": "method not stated"}, "[2]": {"biological_target": "CD32a receptor (Fc gamma receptor) (UniProt P12318)", "sequence (P12318 36-218)": "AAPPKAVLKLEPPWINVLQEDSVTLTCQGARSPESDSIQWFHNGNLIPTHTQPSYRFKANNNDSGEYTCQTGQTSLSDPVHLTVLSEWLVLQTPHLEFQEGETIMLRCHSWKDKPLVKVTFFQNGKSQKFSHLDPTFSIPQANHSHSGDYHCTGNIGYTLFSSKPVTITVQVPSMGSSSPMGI", "test": "method not stated"}, "[3]": {"biological_target": "human PD-L1 on primary human cells in the dendritic cell / CD4+ T cell mixed lymphocyte reaction (human) (UniProt Q9NZQ7)", "sequence (Q9NZQ7 19-290)": "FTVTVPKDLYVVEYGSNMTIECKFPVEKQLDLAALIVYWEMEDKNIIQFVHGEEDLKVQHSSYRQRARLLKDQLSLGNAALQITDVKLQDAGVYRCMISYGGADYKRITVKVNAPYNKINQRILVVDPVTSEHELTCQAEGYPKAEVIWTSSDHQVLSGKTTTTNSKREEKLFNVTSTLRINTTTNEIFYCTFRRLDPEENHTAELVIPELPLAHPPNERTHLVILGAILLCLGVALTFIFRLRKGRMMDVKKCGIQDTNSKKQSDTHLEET", "test": "cell-based or functional assay"}, "[4]": {"biological_target": "PD-L1-His tagged, human recombinant, HEK293-derived, Phe19-Thr239 (R&D systems Cat #9049-B7-100) (human) (UniProt Q9NZQ7)", "sequence (Q9NZQ7 19-239 limits assumed)": "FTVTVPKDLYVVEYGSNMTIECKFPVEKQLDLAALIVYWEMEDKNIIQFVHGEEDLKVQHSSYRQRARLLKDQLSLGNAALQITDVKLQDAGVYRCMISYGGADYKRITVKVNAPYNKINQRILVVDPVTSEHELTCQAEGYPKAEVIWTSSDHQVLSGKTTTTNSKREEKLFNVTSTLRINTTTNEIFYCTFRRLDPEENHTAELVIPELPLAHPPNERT", "test": "SPR, captured antibody, PD-L1-His in solution"}, "C1q (Sigma, Cat #C1740)": {"biological_target": "C1q (Sigma, Cat #C1740) (UniProt P02745)", "sequence (P02745 23-245 limits assumed, chain 1 of 3)": "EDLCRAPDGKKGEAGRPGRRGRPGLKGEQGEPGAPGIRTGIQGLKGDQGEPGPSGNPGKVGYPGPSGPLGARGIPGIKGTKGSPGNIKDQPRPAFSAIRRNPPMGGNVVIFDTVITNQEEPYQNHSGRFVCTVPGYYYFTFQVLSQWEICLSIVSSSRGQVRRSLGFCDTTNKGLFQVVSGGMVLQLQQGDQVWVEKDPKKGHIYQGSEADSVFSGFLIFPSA", "sequence (P02746 28-253 limits assumed, chain 2 of 3, further chain)": "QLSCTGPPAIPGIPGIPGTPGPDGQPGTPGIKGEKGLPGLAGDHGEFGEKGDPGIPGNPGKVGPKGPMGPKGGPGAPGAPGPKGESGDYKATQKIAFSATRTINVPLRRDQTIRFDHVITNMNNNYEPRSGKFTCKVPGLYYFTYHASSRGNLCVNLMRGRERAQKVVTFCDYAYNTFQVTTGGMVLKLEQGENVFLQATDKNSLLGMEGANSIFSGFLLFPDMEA", "sequence (P02747 29-245 limits assumed, chain 3 of 3, further chain)": "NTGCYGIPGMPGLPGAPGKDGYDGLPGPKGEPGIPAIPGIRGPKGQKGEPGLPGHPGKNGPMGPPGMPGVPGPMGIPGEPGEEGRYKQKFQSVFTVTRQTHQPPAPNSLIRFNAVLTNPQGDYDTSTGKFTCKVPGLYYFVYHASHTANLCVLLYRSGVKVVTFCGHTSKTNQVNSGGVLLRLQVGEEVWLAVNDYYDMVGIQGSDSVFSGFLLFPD", "test": "ELISA: antibody coated at 0-25 µg/mL, C1q at 2 µg/mL, anti-C1q-HRP"}, "[5]": {"biological_target": "PD-L1-Fc, human IgG Fc fusion protein, human recombinant, HEK293-derived, Phe19-Thr239 (R&D systems Cat #156-B7-100) (human) (UniProt Q9NZQ7)", "sequence (Q9NZQ7 19-239 limits assumed)": "as the sequence (Q9NZQ7 19-239 limits assumed) above", "test": "SPR (Reichert), PD-L1-Fc immobilized, antibody in solution, 1:1 model, 25 C"}, "[6]": {"biological_target": "PD-L1-His tagged, human recombinant, HEK293-derived, Phe19-Thr239 (R&D systems Cat #9049-B7-100) (human) (UniProt Q9NZQ7)", "test": "SPR (Reichert), antibody immobilized directly, PD-L1-His in solution, 1:1 model, 25 C"}, "[7]": {"biological_target": "PD-L1-His tagged, human recombinant, HEK293-derived, Phe19-Thr239 (R&D systems Cat #9049-B7-100) (human) (UniProt Q9NZQ7)", "test": "SPR (Reichert), antibody captured by immobilized anti-human IgG, PD-L1-His in solution, 1:1 model, 25 C"}},
  "data": [
    {"substance": "atezolizumab (Tecentriq), Genentech Inc, Lot 3109904 (antibody)", "values": [
      {"measurement": "Kd", "setting": "[1]", "value": 16, "unit": "µM"},
      {"measurement": "Kd", "setting": "[2]", "value": 41, "unit": "µM"},
      {"measurement": "EC50 of IL-2 secretion in mixed lymphocyte reaction (MLR)", "setting": "[3]", "value": 0.0215, "unit": "µM"},
      {"measurement": "binding affinity against that of B60-55-1 (log)", "setting": "[4]", "value": 2, "unit": "log"},
      {"measurement": "EC50", "setting": "C1q (Sigma, Cat #C1740)", "value": 14.9, "unit": "µg/mL"},
      {"measurement": "Kd", "setting": "[5]", "value": 0.00026, "unit": "µM"},
      {"measurement": "Kd", "setting": "[6]", "value": 0.00062, "unit": "µM"},
      {"measurement": "Kd", "setting": "[7]", "value": 0.00067, "unit": "µM"}
    ]}
  ]
}
